For two substances, co-IP mass spectrometry count results are on record in patent US20240261333A1, “NOVEL TARGETS FOR ENHANCING ANTI-TUMOR IMMUNITY” (THE BROAD INSTITUTE, INC., priority 2021, published 2024).

For one assay, the target named is SLIRP (UniProt Q9GZT3). Briefly: co-IP with anti-FLAG, mass spectrometry; C-FLAG B3GNT2.
The next assay concerns the target RPLP2 (UniProt P05387). Described as above.
In another assay the target is STRAP (UniProt Q9Y3F4). The description is as above.
A further assay addresses RPL10A (UniProt P62906). The assay is described as above.
The target in a further assay is RPL11 (UniProt P62913). Described as above.
In another assay the target is RPL31 (UniProt P62899). Described as above.
Another assay has as its target EEF1A1 (UniProt P68104). Described as above.
Another assay deals with HNRNPA1 (UniProt P09651). The description is as above.
HNRNPA1, sequence (P09651 2-372 limits assumed): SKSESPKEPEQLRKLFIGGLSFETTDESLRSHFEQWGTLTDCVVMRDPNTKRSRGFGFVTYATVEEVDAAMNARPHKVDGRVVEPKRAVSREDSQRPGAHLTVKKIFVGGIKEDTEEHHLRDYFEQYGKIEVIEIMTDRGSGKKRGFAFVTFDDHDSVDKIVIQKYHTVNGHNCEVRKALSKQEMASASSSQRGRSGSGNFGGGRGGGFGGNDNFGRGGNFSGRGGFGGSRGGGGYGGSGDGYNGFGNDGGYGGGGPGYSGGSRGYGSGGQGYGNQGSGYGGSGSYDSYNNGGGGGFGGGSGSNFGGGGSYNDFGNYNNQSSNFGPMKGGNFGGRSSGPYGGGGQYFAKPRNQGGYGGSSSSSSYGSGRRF
For another assay, the target named is UBA52 (UniProt P62987). Described as above.
The target of another assay is FABP5 (UniProt Q01469). The description is as above.
The target of another assay is RPL36A (UniProt P83881). The assay is described as above.
A further assay addresses HNRNPF (UniProt P52597). Described as above.
The next assay concerns the target LYZ (UniProt P61626). The description is as above.
The next assay has as its target RPL21 (UniProt P46778). The description is as above.
The next assay addresses SERPINB12 (UniProt Q96P63). Described as above.
The next assay has as its target RPS15A (UniProt P62244). The description is as above.
The next assay concerns the target TPI1 (UniProt P60174). The assay is described as above.
A further assay deals with RPL35A (UniProt P18077). Described as above.
The target in the next assay is LTF (UniProt P02788). Described as above.
In a further assay the target is RCC2 (UniProt Q9P258). The assay is described as above.
The target in a further assay is CTSD (UniProt P07339). Described as above.
CTSD, sequence (P07339 65-412 limits assumed): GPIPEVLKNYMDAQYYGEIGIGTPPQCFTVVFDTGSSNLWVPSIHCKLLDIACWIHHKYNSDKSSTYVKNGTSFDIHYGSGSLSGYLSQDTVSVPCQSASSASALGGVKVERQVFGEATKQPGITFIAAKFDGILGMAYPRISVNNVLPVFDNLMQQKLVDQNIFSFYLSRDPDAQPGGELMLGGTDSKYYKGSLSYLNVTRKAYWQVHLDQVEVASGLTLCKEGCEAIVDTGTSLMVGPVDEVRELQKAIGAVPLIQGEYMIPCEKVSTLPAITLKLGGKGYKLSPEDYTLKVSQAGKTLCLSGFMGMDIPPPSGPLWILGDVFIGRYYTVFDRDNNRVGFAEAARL
The next assay has as its target PGAM5 (human) (UniProt Q96HS1). As to the kind of experiment: IgG control IP from lysate of N-FLAG B3GNT2 cells, mass spectrometry.
A further assay addresses TECR (human) (UniProt Q9NZ01). The assay is described as above.
The next assay addresses IFI16 (human) (UniProt Q16666). The assay is described as above.
The next assay addresses RRBP1 (human) (UniProt Q9P2E9). The description is as above.
In the next assay the target is PSMA5 (human) (UniProt P28066). Described as above.
Another assay has as its target DNAJA3 (human) (UniProt Q96EY1). The assay is described as above.
The target in another assay is LARP4 (human) (UniProt Q71RC2). The assay is described as above.
The target in a further assay is HDGFL2 (human) (UniProt Q7Z4V5). The description is as above.
HDGFL2 (human), sequence (Q7Z4V5 whole entry): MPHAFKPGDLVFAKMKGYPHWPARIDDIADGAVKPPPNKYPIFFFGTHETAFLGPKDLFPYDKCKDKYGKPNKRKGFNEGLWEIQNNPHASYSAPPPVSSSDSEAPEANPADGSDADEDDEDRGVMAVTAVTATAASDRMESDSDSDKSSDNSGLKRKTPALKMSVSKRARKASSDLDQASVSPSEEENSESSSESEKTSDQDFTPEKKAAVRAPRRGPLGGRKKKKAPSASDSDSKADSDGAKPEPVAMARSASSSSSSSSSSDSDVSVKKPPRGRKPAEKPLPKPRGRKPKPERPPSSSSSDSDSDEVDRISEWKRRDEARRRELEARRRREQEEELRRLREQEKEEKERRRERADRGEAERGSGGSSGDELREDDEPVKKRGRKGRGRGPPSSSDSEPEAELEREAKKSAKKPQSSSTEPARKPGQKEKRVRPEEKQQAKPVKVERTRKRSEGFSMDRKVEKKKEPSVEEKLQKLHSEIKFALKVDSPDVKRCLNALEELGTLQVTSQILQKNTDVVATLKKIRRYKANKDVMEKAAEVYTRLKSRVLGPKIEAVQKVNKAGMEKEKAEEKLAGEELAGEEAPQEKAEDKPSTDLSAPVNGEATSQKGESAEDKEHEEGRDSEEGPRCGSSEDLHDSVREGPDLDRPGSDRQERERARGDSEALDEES
In the next assay the target is PDIA4 (human) (UniProt P13667). The assay is described as above.
The next assay deals with TRAFD1 (human) (UniProt O14545). The description is as above.
For a further assay, the target named is ZRANB2 (human) (UniProt O95218). The description is as above.
The target in another assay is NTPCR (human) (UniProt Q9BSD7). Described as above.
The next assay deals with LDHA (human) (UniProt P00338). The assay is described as above.
Another assay concerns the target RPL34 (human) (UniProt P49207). Described as above.
A further assay has as its target RCN1 (human) (UniProt Q15293). Described as above.
For a further assay, the target named is PXN (human) (UniProt P49023). The assay is described as above.
For a further assay, the target named is ERP44 (human) (UniProt Q9BS26). Described as above.
The next assay concerns the target SFXN3 (human) (UniProt Q9BWM7). Described as above.
The target of the next assay is PSMC2 (human) (UniProt P35998). Described as above.
For another assay, the target named is UBTF (human) (UniProt P17480). Described as above.
UBTF (human), sequence (P17480 other isoform, or with tags, fused parts or gaps limits assumed): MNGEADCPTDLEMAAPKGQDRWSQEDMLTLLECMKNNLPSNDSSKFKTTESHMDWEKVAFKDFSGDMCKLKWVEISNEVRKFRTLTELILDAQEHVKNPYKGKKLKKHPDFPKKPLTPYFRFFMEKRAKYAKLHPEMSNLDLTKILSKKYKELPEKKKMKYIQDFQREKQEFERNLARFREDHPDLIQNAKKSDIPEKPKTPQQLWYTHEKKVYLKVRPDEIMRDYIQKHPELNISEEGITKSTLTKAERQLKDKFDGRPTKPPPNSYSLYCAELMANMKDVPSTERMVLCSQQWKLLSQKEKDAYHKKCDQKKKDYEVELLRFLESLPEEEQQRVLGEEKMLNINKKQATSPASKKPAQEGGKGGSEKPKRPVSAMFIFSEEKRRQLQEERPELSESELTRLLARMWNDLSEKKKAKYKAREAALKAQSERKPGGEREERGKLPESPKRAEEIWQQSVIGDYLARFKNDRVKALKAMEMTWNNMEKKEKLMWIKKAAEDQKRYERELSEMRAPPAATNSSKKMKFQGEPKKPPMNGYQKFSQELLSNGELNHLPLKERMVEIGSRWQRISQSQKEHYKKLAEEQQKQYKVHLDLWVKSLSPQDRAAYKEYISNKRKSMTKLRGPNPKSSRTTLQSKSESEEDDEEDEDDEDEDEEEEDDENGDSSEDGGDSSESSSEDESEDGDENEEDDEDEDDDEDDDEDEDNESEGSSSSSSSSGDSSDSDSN

HNRNPF, sequence (P52597 2-415 limits assumed): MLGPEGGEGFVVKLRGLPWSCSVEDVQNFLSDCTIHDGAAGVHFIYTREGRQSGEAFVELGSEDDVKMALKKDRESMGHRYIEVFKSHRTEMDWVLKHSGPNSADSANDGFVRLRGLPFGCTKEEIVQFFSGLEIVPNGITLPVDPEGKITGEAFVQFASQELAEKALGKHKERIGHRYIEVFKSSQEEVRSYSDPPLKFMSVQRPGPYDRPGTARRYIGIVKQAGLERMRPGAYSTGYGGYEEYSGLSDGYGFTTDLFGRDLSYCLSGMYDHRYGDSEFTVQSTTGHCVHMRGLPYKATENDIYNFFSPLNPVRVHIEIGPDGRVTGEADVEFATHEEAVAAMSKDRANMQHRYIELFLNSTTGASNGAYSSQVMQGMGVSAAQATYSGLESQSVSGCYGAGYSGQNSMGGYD
RPLP2, sequence (P05387 whole entry): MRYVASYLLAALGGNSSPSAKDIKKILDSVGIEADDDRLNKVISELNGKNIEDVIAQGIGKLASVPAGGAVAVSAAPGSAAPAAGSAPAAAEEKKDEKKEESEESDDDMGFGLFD
TECR (human), sequence (Q9NZ01 whole entry): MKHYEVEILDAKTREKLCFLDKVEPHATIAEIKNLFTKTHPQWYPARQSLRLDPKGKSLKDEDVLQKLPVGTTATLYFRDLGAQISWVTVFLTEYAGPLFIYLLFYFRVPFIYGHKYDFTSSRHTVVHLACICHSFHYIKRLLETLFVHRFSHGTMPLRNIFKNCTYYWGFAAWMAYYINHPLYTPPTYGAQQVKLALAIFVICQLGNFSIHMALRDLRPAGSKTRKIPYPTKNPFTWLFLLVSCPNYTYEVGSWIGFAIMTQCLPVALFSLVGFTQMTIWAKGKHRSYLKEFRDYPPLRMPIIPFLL
LYZ, sequence (P61626 19-148 limits assumed): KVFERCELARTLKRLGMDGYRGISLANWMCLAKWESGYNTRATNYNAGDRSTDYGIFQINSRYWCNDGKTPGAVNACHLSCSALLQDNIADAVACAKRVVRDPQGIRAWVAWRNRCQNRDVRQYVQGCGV
STRAP, sequence (Q9Y3F4 whole entry): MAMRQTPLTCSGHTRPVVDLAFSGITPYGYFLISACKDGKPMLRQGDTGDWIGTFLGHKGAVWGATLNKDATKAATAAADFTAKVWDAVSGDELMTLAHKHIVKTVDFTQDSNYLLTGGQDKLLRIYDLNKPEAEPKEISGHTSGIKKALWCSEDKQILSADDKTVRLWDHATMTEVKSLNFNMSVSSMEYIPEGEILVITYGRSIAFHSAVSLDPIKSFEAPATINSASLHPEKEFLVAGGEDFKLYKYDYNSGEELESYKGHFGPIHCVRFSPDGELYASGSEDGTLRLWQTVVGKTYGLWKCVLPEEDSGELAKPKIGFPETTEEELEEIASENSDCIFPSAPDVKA
RRBP1 (human), sequence (Q9P2E9 whole entry): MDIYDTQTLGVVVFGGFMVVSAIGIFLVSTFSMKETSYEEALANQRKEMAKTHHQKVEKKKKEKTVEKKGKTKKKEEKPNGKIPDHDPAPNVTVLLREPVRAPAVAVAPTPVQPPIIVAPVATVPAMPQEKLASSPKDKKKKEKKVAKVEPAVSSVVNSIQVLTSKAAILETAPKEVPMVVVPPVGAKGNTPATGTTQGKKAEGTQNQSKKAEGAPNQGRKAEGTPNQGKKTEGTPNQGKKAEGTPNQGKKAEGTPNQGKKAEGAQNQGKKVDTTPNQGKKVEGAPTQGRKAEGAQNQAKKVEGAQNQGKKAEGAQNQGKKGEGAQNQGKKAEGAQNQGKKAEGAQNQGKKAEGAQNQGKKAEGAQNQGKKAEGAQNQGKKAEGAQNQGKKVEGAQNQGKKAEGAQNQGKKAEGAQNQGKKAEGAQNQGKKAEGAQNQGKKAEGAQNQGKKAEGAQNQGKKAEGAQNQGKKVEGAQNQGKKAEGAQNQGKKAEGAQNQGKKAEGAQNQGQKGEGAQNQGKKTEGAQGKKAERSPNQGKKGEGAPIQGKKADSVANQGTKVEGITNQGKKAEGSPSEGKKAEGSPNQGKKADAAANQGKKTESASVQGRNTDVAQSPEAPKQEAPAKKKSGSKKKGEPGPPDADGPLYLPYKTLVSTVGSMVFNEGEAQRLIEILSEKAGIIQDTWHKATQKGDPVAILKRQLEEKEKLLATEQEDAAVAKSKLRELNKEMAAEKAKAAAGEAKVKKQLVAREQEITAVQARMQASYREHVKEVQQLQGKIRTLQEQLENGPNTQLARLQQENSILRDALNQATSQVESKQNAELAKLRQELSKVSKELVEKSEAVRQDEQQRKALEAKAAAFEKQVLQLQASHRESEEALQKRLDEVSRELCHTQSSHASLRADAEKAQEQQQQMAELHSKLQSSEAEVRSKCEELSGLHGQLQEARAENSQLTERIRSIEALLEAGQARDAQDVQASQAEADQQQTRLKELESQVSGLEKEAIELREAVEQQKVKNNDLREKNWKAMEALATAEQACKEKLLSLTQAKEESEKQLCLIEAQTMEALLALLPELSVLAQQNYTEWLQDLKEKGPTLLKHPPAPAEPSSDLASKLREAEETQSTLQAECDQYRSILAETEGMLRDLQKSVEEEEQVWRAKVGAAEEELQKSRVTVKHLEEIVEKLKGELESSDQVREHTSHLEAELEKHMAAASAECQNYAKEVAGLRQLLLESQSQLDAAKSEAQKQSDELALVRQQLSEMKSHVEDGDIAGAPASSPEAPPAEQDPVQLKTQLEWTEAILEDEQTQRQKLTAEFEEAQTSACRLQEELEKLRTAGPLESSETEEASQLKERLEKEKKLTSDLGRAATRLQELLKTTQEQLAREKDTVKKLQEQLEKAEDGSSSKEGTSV

As to “C-terminal FLAG tagged B3GNT2 (from UniProt Q9NY97 1-397) (enzyme)”, the co-IP mass spectrometry count in the assay with SLIRP is 6; in the assay with RPLP2, 13; in the assay with STRAP, 3; with RPL10A, 16; with RPL11 it was 7; in the assay with RPL31 it was 6. For the same substance, the co-IP mass spectrometry count in the assay with EEF1A1 was 11; with HNRNPA1 it was 9; with UBA52 it was 20; with FABP5, 8; with RPL36A it was 11; with HNRNPF it was 7. Besides, the co-IP mass spectrometry count is 6 with LYZ; 11 with RPL21; 2 in the assay with SERPINB12; 6 in the assay with RPS15A; 2 with TPI1; 6 in the assay with RPL35A. For the same substance, the co-IP mass spectrometry count came to 7 with LTF, 6 with RCC2 and 4 with CTSD.
For “IgG control (Millipore Sigma 12-371) (antibody)”, the co-IP mass spectrometry count in the assay with PGAM5 (human), with TECR (human), in the assay with IFI16 (human), in the assay with RRBP1 (human), in the assay with PSMA5 (human) and with DNAJA3 (human) was 0 in each case. Further, the co-IP mass spectrometry count with LARP4 (human), with HDGFL2 (human), with PDIA4 (human), with TRAFD1 (human), with ZRANB2 (human) and in the assay with NTPCR (human) was 0 each time. The co-IP mass spectrometry count with LDHA (human), in the assay with RPL34 (human), with RCN1 (human), in the assay with PXN (human), in the assay with ERP44 (human) and with SFXN3 (human) was 0 in each case. The co-IP mass spectrometry count in the assay with PSMC2 (human) and with UBTF (human) was 0 each time.
